A short description of this data set: soluble on expression in E. coli; label from the status in PepcDB or PDB records.
Turning to “MAHHHHHHMGTYFSKDLQECLREEKRNLNRSIRELEREIFKMENEKKQIEKNIRIHAKKNDITLVRTLAKDLVKIKQNVIKYNKIKSHLLSMKIKLQSVKSSEQLNKSLCDINNIIKRVNKYIQVKNINNSIYEFQKQNNEVSIKEDMIDDLFDTLNYDIDMIQEEDEIVSKVLDELGIQLNSKLEQIPTIKQTENEQLDNVNISKIEDRINNLKKM”, the “soluble on expression in E. coli” value is reported as “soluble”.
To “MYPDGLTENEKLKVKELCTMVNISDEDAIKLLKENDWDIAISSRRVSKQEDKTLVPGTSREEIDLDRLSSRLRVHGLAFYLPDFGGFPNEFRTFLEKDLIETQTQKRLEASRHLNWWHQFGQKLYPLSTTGDGNCLLHAASLGMWGVHDRQLSLRETLYELLTNGARKEAIRRRWKWVENHMNQSNGLALTLSENEWELEWDVVLGLSSPLPRKQEDNGSNSTDQIYESLEAIHVFALAHVLKRPVVVVSDTILRNAKGEELSPVAFGGIYLPLECPPSQCHRSPLVLCYDSAHFSPLVLMRTETNNKQIIPIIDVNRNLLPVHFAVDPGESFDWSKLETNSNTQTTTDMSQIDKLALISQYMDIIRLDVRRGSIRSSRRVRSAHAQLLTESRGENGQNLPQKSIKPRDLSAHSSDEQPSNNAKGMTLASSGIGSGRHEKWRLINEIRTHVLRTFRISSSTRGKEKLIDTDDCIARMNSTCVLASELLPTHHQYMDKIINEYMKSAKQRFQQNQRTQSDSRKRISRSFSASSLMLTCIGCDSEFKPASQVTNIMCDQCFAWQKMSVLTSNCDQFMGNSGPPCKSSTLPSFGSNDSNQNDKENIVEVLNVVPKDGAKTLTSMRAVEDENGVVHYYMDDEVADS” belongs “not soluble”.
To “MSLKSLSYKRIYKSQEYLATLGTIEYRSLFGSYSLTVDDTVFAMVSDGELYLRACEQSAQYCVKYPPVWLTYKKCGRSVTLNYYRVDESLWRNQLKLVRLSKYSLDAALKEKSTRNTRERLKDLPNMSFHLEAILGEVGIKDVRALRILGAKMCWLRLRQQNSLVTEKILFMLEGAIIGIHEAALPVARRQELAEWADSLTPKQEFPAELEEGHHHHHH” belongs “soluble”; to “MSLNTIDNKEHIIHYEHILKSTHTVNEVNTVSEVDAMKYSLIKLSAMNSYSDCQQAIEDIEADPENYTTETRAAARIGGHCELLKGAKEKIKALEKKADSFIPSDDSEEVNTVSETSQRTYGYGRVSTDEQTTSQQLTAIREAGHKVSDNRFIVDEGVSGGVCAMERPAFRNLVENKLEKGDTLVIAKLDRLGRDNIDVQQVVQMLTDKGIKLFILDLPVADLSSPEGKLMLQMFATFAEFEKNRISERIRDKLKQLKQEGKALGRPTKNVYDDVQELKAQGISQRTIADKLNVSLSTVRRNWVDTKRSLEVVTESGEGHHHHHH”, “not soluble”.
With “GNGIPPYAGAGDPARFTFNIVQNAKYWDKEHQYESLSDIRLHKFNAPAPGTFDFDESPVDGKKLELVSSKKIGFDGKFAGIAHDGEQFGLVTQDGSLFFTKDFDKATSFAHLDVPNGSDIHNTVDAAFFEPGGLAGIAQNKTLYGALVTKDVDDYIAWKDFLESSGDVMPLFDSKGRPELRTIRARMQYTMSVASDAKSDTFITVSVPHERAEQIVVSEFSKKDNKLVREGVLDGDYYPVGADMRGDVLYLLSKQHNCLVRVNMKDFTVKDAANLPVEGSDLAIVKDRAYILDGDTVHEVKL” the entry was “not soluble”; with “MSLCMEAVMNIGIYIYDEAEVLDFSGPFEVFSTAKRLGAGSWNVFLVSETLEPVKARGGFTVLPDYSFQNYPQIDLLIVVGGVHRNEMNKSNVLHWVASVDKHAKHIASVCTGAFILANAGLLKGLAVTTHWEDIPELKQRFPDLVVVEDKRWITASKYTTSGGISAGIDMSLFLVSKFHSQSHAELVAHQMEYNWQKCTEGGSHHHHHH”, “soluble”; with “LGFLPKEKKDKIKRFIKYEDALMSLTAEILIRAVVCSKLGIKNESVKFNRTTYGKPYLEGYDDFHFNLSHSGSWVVCAVSSKPVGIDIEKIREVDLDIAKRFFSKEEASDLFAKEDNEKTEYFFELWTLKESYIKADGRGLSLPLNSFFFRIENDNVIFVSESEKKKFFFKRYDIDKGYKLAVCSMESHFPEDVEIKSFEEVCKFLCER”, “not soluble”.
Turning to “GTEDLYFQSHMTIAVTGSIATDHLMRFPGRFSEQLLPEHLHKVSLSFLVDDLVMHRGGVAGNMAFAIGVLGGEVALVGAAGADFADYRDWLKARGVNCDHVLISETAHTARFTCTTDVDMAQIASFYPGAMSEARNIKLADVVSAIGKPELVIIGANDPEAMFLHTEECRKLGLAFAADPSQQLARLSGEEIRRLVNGAAYLFTNDYEWDLLLSKTGWSEADVMAQIDLRVTTLGPKGVDLVEPDGTTIHVGVVPETSQTDPTGVGDAFRAGFLTGRSAGLGLERSAQLGSLVAVLVLESTGTQEWQWDYEAAASRLAGAYGEHAAAEIVAVLA”, the “soluble on expression in E. coli” value was “soluble”.
To “IFSEINIDPTKRVLLYAPTWKTNSSDDDIFPINEQLLKHYNVIYKGHVESKNDLVPEGVIIPPNNIETQDLIIISDVVLTDYSSIIFDALTVDKKGCLYTPNHSQYVEERGVYQDVMDTLKPIWYTDAELLINDLITDSIPQLNNKYTNKNNQSFEYISKLISN” belongs “not soluble”; to “MWGACKVKVHDSLATISITLRRYLRLGATMAKSKFEYVRDFEADDTCLAHCWVVVRLDGRNFHRFAEKHNFAKPNDSRALQLMTKCAQTVMEELEDIVIAYGQSDEYSFVFKRKTNWFKRRASKFMTHVASQFASSYVFYWRDYFEDQPLLYPPGFDGRVVVYPSNQTLKDYLSWRQADCHINNLYNTVFWALIQQSGLTPVQAQGRLQGTLAADKNEILFSEFNINYNNEPPMYRKGTVLIWQKVDEVMTKEIKLPTEMEGKKMAVTRTRTKPVPLHCDIIGDAFWKEHPEILDEDS”, “soluble”; to “MSKTRMEKLKTLKTIAETLNQGHDIKATLDEVLKELLSLTNLQSGWIFLIEEDGSYTLAADAYLPPALSRKEKVLMCEGECYCLTKFNNGGLRKAANIMNCKRIESAENLHCFDTEGITHHATVPLEDGDRRFGLLNVAAAGKTMFDEEELHLLESVAFQIGTAIQRMRLSE”, “soluble”.
With “MDDWKCYDFEKIKRFEKCENPATSCVKKFVHPTLPNDIPISINLQWSPWSECNDRTQTRTGQCFIRLERQLDDSDGLPENWSWLRKLNTMEKHLAFRDGVPLFNGLLASWLYEVESLESCLDTELGPKSKLSGYDNFFGNVLTSLFSNKTISGIKMSDNAFKYCIRTKTLDETNDALIGTYTEDKRTC” the entry was “not soluble”; with “MGSDKIHHHHHHVVVFCGMGTLGPSFPEVPWLRLGVMSTDPKPGAEHPHEVENLDNHECWRLLRSVSVGRLAVWVEDHPDIFPINYKVDHGTLVFRTADGTKLQAATGDTPVAVEADGVDADSGVAWSVVIKGQAAPVKNQQEVLDTVGLLLFPWQAGKKEHFVRITPDTVTGRRFKVTPPLTWWTPLDDATRSGFE”, “not soluble”.
In the case of “MKIVAIGAIPFSIPYTKPLRFASGEVHAAEHVLVRVHTDDGIVGVAEAPPRPFTYGETQTGIVAVIEQYFAPALIGLTLTEREVAHTRMARTVGNPTAKAAIDMAMWDALGQSLRLSVSEMLGGYTDRMRVSHMLGFDDPVKMVAEAERIRETYGINTFKVKVGRRPVQLDTAVVRALRERFGDAIELYVDGNRGWSAAESLRAMREMADLDLLFAEELCPADDVLSRRRLVGQLDMPFIADESVPTPADVTREVLGGSATAISIKTARTGFTGSTRVHHLAEGLGLDMVMGNQIDGQIGTACTVSFGTAFERTSRHAGELSNFLDMSDDLLTVPLQISDGQLHRRPGPGLGIEIDPDKLAHYRTDN”, the “soluble on expression in E. coli” value is “soluble”.
With “MAHHHHHHMSDSALLEGVSFPVEPFAEKHRKILALLAHAATQAVNTRSNEVVFDVLCSSEPSLARLYPEVAVLQGVHQIRRVLRNLQDSQPHVRPMYLKMIVDSLKDMNEMLPDPLLLVIARTVEILEGEGRGFRELEPHLLDLVEYIQVVILRETKLLQCRGTLITLRLRGVPPFVASETESTT”, the “soluble on expression in E. coli” value is “not soluble”.
Regarding “MSLNIAMTGATGYIGKHLSNYLTEKGGHRIIPLGRAMFREGMSGLLVQTLTHCDVIINLAGAPINQRWTPEHKQELFNSRITVTHRIIRALNAVKTKPKLMISASAVGYYPSLVESDEYTQTRGDGFLSDLCYAWEKEAKRCPQPTRLVITRFGVVLSPDGGAMQQMLRPLRATKVAAVIGPGTQPFPWIDIRDLCCAMAFFIENEELRGVFNLVAPQAVSQSTFTRAMGKAYHAWTTLIVPQAVFRLFYGEAASFLTAGQRVRPTRLLEAGFHFSVPTIEKLFEGEGHHHHHH”, the “soluble on expression in E. coli” value is given as “soluble”.
To “MNNETSGSRDMILKHFDSTQNNQNSVKLEHESSDNNESSGSQNFVFNFLMSQLQNMGPVEIKQEVEAKMLDDIEDEYTDNNYNEGYSKMDTDGDLEWEEEFKKLNKDPSKMDKREQERHRQMAKNREYARKCVQKKKDQRKHAEIRSNQIKKRIQLLKNKTAIKEKNANFAVDLRKMMSEIGVERLKLEYENEKMELNKKFAEMFAQDETVNLNFHRLASAREEFEKAAEDLRLKNGVIGTLGSRKIRAKQQMEWRQHLYQISAHEHEHHRETKLAELADEYVKQTVPKAAPLVTSIPKDMLDQLIKNNKTLDLEELCRFVADNLCLLQNDNDDKESVVK” belongs “not soluble”; to “MIERYSREEMSNIWTDQNRYEAWLEVEILACEAWSELGHIPKADVQKIRQNAKVNVERAQEIEQETRHDVVAFTRQVSETLGEERKWVHYGLTSTDVVDTALSFVIKQANDIIEKDLERFIDVLAEKAKNYKYTLMMGRTHGVHAEPTTFGVKMALWYTEMQRNLQRFKQVREEIEVGKMSGAVGTFANIPPEIESYVCKHLGIGTAPVSTQTLQRDRHAYYIATLALIATSLEKFAVEIRNLQKTETREVEEAFAKGQKGSSAMPHKRNPIGSENITGISRVIRGYITTAYENVPLWHERDISHSSAERIMLPDVTIALDYALNRFTNIVDRLTVFEDNMRNNIDKTFGLIFSQRVLLALINKGMVREEAYDKVQPKAMISWETKTPFRELIEQDESITSVLTKEELDECFDPKHHLNQVDTIFERAGLA”, “soluble”.
To “MGSDKIHHHHHHMNIKIAKNAGFCFGVKRAMKMAWDEVEKNDSGIYALGPLIHNKQAVAKYEEKGLKTVNEIDTIPNHENMIIRSHGVPENIYKEAKDKKLKIVDTTCPFVKKIHTVVSEYHNKGYEIIVIGDMKHPEVIGINGWCENSAIIIKTLEQMENMEFDNSKRYCLVAQTTINPELYISIVNKLSDKLEEIVFNDTICSATKTRQESAKELAKEVDCMIVIGGKHSSNTQKLVKVCEDLVPTFAIETKDELDVNTLKKYKNLGITAGASTPNWIIEEVVTFLENL” belongs “not soluble”; to “MIPRVRAPELPQNYPWLNTEQPLSIKQLNGRVVILDFWTYCCINCLHVLPDLKYLEQKYKDSLTVIGVHSAKFDNEQETENIRQAILRYDIEHPVLVDKDFRVWQEYAVRAWPTLMVIDPKGYVIGYVSGEGNRDKLDQLITQVIQEHQGAINFQQLSLTLEKQRQPLITPLAFPGKVLATPSGLFVADSGHHRIVVSDFNGEILHLIGNGKSGLTDGNFQEAQFSAPQGMAFDMENQILYLADTENHALRRVDINQQTVETIAGTGEQSRNIQPHGGVGLETALNSPWDLVNIENSLYIAMAGVHQIWQMDLASGVIKTYAGTGVEACLDASLTESAFAQPSGITNNEQELYIADSEISSIRGVGLVEPQEVRTVCGSGGLFGFGDVDGQGEDVRLQHCLGVEYFQNYLWVADTYNHKIKSVSPHTGNCQTVLGDGLAGLQNGQGKNTRFFEPSGLSAIDSYLYISDTNNHVIRRVDLRTLEVTTMQFNGLCAPDVCIPNNFLEHHHHHH”, “not soluble”.
